The target of test [1] is Nup82-Flag-TEV-ProtA (S. cerevisiae) (UniProt P40368). Briefly: AUC + SEC.
Test [2] concerns the target Nup82 (of the Nup82–Nup159tail–Flag-Nsp1C complex) (S. cerevisiae) (UniProt P40368). Briefly: SEC-MALS.

Here are results for two substances from article PMC4315244.

Sequence of Nup159 tail (domain or fragment) (P40477 whole entry, the tested form may be a part): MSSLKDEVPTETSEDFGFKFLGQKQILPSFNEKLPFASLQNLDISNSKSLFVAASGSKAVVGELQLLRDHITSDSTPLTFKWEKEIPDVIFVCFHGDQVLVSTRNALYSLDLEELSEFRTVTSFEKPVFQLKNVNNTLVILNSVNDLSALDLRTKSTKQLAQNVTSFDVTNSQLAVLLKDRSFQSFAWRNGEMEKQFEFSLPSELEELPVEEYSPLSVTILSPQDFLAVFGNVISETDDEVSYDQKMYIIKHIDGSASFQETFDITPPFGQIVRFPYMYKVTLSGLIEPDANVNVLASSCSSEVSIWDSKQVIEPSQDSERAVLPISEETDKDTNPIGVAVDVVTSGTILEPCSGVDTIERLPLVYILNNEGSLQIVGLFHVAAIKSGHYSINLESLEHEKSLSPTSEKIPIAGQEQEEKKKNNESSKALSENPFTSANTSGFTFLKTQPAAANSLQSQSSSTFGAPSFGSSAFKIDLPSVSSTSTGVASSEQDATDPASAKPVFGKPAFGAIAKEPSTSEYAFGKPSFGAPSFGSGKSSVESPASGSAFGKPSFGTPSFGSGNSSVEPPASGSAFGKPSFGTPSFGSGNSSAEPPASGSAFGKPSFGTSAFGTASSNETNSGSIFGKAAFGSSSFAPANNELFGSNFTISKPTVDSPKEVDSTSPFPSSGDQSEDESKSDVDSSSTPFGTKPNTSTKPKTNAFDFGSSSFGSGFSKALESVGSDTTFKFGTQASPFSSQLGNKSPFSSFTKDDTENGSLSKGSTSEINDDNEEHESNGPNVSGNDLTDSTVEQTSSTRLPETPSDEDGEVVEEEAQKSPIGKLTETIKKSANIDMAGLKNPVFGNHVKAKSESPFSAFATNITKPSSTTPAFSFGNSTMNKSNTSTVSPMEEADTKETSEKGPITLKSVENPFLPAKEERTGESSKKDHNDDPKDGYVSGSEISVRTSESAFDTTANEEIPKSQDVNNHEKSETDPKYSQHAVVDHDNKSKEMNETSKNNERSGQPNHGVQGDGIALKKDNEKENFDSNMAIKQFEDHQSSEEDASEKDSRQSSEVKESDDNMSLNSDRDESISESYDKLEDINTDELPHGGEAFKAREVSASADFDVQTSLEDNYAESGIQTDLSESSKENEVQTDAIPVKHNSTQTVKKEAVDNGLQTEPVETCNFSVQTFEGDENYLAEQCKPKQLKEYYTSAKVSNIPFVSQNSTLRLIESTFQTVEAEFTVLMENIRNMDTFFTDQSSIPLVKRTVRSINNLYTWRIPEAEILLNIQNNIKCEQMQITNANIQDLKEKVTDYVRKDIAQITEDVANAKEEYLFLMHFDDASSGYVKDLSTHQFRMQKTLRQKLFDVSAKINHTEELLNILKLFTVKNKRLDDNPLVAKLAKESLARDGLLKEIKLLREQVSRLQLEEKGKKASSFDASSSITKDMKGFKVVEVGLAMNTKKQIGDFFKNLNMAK
Sequence of Nup82 (of the Nup82–Nup159tail–Flag-Nsp1C complex) (S. cerevisiae) (P40368 whole entry, one chain of several): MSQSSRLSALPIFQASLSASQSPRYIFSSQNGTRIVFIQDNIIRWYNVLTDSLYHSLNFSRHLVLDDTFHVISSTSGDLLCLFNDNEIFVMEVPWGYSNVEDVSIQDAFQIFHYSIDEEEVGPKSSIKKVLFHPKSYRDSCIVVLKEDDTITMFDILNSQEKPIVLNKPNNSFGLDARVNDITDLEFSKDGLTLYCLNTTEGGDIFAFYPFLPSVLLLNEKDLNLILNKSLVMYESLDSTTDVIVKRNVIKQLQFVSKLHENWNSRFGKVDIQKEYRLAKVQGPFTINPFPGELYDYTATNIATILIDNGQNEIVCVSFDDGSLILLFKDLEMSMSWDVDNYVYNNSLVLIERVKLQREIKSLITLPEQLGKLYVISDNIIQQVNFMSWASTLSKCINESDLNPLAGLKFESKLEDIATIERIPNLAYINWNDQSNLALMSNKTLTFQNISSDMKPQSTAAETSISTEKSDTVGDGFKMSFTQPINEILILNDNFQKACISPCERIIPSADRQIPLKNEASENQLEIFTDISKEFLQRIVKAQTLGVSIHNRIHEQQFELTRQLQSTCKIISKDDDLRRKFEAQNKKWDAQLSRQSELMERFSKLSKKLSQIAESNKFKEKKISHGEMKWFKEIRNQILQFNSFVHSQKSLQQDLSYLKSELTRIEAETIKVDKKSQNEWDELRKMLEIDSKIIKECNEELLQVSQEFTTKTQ
Sequence of Nup82-Flag-TEV-ProtA (P40368 whole entry): as the sequence (P40368 whole entry, one chain of several) above

On to “Nup82-Flag-TEV-ProtA (from UniProt P40368 1-713) (natural protein; other documents disagree on this pair)”, for which the stoichiometry N in test [1] was determined as 2.

Turning to Nup159 tail (domain or fragment), the stoichiometry N in test [2] was determined as 1.
